Columns and labels:
Assay in all cases: ELISA, antigen coated at 10 µg/ml
[1] = molecular target: T1, botulinum neurotoxin serotype C (BoNT/C) (UniProt P18640 2-1291)
T1 sequence: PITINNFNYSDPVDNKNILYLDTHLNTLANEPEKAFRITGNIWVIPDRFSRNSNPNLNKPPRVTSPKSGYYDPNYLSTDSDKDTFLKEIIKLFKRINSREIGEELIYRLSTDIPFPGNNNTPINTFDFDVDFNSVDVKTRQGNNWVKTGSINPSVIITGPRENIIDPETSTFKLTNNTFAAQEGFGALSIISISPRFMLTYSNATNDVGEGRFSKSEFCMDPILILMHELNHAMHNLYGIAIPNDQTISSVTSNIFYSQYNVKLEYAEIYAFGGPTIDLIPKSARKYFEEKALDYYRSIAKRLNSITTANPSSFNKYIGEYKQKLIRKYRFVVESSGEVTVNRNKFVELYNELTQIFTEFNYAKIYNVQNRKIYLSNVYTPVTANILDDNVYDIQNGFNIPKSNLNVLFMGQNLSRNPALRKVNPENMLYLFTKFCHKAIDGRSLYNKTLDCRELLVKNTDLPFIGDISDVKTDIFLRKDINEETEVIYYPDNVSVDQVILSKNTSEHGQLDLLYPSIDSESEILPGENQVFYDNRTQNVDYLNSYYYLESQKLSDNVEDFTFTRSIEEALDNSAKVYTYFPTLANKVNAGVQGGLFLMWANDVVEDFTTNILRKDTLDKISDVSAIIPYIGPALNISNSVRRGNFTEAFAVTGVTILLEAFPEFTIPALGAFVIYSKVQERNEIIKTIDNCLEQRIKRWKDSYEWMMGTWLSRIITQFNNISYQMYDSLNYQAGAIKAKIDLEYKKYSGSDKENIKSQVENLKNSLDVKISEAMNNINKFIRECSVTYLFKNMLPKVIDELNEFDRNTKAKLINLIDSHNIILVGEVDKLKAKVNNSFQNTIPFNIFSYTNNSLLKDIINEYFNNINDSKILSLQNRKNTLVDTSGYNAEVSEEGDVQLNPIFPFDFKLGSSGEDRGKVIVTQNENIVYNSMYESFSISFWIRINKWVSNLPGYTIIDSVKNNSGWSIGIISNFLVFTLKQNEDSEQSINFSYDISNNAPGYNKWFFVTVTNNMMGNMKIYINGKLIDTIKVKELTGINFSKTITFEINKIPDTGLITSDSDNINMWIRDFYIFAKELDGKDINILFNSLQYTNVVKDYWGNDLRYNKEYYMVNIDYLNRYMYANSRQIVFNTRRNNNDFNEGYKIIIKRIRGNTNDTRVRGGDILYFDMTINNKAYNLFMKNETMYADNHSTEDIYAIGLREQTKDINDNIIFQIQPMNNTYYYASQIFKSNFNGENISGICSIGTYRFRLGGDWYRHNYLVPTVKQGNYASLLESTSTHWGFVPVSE

[2] = molecular target: T2, botulinum neurotoxin serotype B (BoNT/B) (UniProt P10844 2-1291)
T2 sequence: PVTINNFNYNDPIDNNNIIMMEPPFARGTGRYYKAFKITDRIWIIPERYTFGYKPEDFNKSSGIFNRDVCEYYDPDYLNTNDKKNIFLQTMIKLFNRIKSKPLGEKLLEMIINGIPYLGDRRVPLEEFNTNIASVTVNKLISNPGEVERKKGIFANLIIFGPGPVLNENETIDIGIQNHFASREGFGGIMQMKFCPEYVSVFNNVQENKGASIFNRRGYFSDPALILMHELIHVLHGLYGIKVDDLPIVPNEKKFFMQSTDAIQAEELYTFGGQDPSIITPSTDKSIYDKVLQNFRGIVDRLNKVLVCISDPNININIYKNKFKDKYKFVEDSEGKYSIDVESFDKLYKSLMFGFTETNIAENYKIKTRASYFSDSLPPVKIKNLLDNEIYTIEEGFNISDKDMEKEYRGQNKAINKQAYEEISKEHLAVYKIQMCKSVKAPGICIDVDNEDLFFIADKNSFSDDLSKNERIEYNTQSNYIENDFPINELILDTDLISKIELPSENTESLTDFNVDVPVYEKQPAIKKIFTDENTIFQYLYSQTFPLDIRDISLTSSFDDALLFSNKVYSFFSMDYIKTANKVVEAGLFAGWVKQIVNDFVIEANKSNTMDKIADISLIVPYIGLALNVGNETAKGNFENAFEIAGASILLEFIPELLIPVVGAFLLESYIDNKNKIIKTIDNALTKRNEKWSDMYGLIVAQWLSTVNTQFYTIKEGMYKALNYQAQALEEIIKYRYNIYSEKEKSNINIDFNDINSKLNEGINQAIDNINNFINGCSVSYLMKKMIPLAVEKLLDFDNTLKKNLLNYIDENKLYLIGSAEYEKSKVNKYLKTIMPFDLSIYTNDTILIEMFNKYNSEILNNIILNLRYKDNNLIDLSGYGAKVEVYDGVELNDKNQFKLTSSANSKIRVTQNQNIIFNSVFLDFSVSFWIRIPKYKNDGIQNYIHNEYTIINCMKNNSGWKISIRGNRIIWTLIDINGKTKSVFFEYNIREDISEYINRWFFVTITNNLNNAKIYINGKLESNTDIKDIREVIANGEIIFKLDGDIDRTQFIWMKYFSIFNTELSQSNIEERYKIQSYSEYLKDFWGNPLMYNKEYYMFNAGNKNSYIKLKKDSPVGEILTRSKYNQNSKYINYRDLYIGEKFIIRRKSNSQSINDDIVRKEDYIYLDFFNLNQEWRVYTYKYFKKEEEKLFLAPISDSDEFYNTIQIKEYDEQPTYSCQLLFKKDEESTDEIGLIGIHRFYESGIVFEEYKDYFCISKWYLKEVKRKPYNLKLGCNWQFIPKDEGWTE

[3] = molecular target: T3, botulinum neurotoxin serotype E (BoNT/E) (UniProt Q00496 2-1251)
T3 sequence: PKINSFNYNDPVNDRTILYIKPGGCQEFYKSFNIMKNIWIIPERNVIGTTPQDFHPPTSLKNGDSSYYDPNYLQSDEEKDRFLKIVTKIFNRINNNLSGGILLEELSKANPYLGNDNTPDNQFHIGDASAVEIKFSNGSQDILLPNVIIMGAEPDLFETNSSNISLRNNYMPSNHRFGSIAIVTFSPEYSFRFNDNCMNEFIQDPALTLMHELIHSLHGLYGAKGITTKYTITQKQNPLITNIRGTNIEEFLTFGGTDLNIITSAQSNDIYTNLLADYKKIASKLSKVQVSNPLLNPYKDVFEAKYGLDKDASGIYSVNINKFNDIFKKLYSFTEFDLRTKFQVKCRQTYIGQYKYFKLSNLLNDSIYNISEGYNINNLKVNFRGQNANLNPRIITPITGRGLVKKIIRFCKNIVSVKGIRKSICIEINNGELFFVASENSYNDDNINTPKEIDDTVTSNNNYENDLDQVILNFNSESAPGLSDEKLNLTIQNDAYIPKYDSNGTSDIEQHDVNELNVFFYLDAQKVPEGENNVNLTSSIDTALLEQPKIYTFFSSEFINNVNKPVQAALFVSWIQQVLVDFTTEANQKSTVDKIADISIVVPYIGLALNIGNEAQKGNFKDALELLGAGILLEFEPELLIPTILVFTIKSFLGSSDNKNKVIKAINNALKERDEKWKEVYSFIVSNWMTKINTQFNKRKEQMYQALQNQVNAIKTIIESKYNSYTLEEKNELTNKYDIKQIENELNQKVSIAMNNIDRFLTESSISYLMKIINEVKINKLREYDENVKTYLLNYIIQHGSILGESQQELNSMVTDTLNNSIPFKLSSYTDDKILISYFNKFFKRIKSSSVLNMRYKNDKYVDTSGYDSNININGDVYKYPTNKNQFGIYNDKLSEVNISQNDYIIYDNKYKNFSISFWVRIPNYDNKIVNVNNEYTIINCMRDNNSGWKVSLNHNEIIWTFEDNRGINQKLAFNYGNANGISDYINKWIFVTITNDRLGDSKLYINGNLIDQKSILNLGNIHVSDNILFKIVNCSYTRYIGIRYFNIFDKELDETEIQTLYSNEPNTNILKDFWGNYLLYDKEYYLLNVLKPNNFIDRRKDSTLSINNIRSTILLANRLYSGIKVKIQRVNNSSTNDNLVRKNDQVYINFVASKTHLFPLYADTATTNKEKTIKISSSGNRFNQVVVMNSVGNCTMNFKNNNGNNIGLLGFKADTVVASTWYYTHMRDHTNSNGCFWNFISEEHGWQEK

[4] = molecular target: BoNT/A HN, recombinant translocation domain of botulinum neurotoxin serotype A (Clostridium botulinum, UniProt P0DPI0 449-870)

Measured: binding result

Chain of BoNT/A HN, recombinant translocation domain of botulinum neurotoxin serotype A (P0DPI0 449-870 limits assumed): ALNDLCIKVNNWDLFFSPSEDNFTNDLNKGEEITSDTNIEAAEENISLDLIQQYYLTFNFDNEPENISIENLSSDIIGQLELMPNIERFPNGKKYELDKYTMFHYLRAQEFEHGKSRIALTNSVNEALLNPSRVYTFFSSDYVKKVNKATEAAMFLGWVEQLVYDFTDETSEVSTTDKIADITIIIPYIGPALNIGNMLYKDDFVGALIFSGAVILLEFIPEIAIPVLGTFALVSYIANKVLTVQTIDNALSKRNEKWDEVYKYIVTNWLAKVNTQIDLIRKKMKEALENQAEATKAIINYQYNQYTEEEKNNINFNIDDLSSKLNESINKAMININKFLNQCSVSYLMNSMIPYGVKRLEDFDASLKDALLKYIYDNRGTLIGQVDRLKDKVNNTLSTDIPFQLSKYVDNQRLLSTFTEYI

B1: scFv 3D12 (human, immune library) (scFv, V domains shown)
VH: QVQLVQSGGGVVHPGRSLKLSCAGSGFTFSDYDMHWVRQAPGKGLEWVAVMWFDGTEKYSAESVKGRFTISRDNSKNTLFLQMNSLRADDTAVYYCAREPDWLLWGDRGALDVWGQGTTVTVSS
VL: DIVMTQSPSTLSASVGDRVTITCRASQSISSWLAWYQQKPGKAPKLLMYEASSLESGVPSRFSGSGSGTEFTLTISSLQPDDFAAYYCQHYNTYPYTFGQGTKLEIKR
no binding: all assays above
